{
  "source": "paper PMC10783653",
  "about": "(Cell reports. Physical science, 2023)",
  "key": {"RET M918T": {"biological_target": "RET M918T (Homo sapiens, UniProt P07949, M918T)", "sequence (P07949 29-1114 M918T)": "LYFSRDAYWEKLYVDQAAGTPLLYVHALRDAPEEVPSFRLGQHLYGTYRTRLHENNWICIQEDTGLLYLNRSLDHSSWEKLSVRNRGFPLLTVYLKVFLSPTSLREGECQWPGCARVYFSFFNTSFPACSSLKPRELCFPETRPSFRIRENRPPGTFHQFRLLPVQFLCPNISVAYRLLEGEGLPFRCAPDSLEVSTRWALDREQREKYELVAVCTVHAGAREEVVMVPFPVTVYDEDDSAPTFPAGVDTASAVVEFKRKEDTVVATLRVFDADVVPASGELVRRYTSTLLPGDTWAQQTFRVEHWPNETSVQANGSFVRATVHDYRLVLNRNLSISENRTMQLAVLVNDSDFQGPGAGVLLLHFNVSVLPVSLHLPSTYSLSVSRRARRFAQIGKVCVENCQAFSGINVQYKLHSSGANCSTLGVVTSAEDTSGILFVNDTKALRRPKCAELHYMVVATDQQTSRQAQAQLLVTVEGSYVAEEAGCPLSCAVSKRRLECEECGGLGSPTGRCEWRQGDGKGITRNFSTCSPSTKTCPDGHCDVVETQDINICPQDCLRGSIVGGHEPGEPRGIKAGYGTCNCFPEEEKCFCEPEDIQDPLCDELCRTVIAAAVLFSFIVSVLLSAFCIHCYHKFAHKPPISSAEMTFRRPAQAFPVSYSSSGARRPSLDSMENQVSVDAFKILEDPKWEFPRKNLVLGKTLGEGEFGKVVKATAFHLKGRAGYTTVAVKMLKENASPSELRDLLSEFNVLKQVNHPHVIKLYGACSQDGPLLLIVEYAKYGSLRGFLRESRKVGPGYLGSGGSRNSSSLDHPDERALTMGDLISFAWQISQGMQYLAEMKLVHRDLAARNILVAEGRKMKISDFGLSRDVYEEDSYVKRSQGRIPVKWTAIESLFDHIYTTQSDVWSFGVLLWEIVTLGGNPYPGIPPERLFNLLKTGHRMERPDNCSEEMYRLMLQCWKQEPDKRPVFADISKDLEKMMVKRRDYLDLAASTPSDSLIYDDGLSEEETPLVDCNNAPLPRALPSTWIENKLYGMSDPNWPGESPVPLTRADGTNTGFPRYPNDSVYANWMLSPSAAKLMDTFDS", "assay": "LIMS-Kinase assay, RET M918T"}, "EGFR L858R": {"biological_target": "EGFR L858R (Homo sapiens, UniProt P00533, L858R)", "format": "biochemical", "conditions": "enzyme optimization; 2.5 nM EGFR L858R, 1 μM peptide, 100 μM ATP, 60 min"}},
  "data": [
    {"molecule": "COc1ccc(CN2C3CC2CN(c2ccc(-c4cc(OCC(C)(C)O)cn5ncc(C#N)c45)cn2)C3)cn1", "note": "[selpercatinib, reference compound]", "values": [
      {"measurement": "potency in LIMS-Kinase assay compared to previously reported value", "setting": "RET M918T; 0.7 nM vs. […]", "value": "more than six times higher"}
    ]},
    {"molecule": "MS-Csktide1: kinase substrate peptide, sequence KEEIYFFF", "values": [
      {"measurement": "substrate converted", "setting": "EGFR L858R", "value": "approximately 20%"}
    ]},
    {"molecule": "MS-Csktide2: kinase substrate peptide, sequence KEEIYFFFG", "values": [
      {"measurement": "substrate converted", "setting": "RET M918T; enzyme optimization, 2.5 nM RET M918T, 1 μM peptide, 100 μM ATP, 60 min", "value": "Approximately 39%"}
    ]}
  ]
}
